Patent EP0910659B1, “ANTIBODIES AGAINST A COMPLEX OF CD4 AND A CHEMOKINE RECEPTOR DOMAIN, AND THEIR USE AGAINST HIV INFECTIONS” (United Biomedical, Inc., priority 1996, dated 1997)

Key:
"B4-rsCD4" interaction = biological target: T1, "B4-rsCD4" interaction (Homo sapiens, UniProt P01730); experiment: ELISA inhibition assay with CD4 peptides (B4); format: binding; conditions: B4 10 µg/mL, negative = enhancement; for % inhibition of "B4-rsCD4" interaction, Conc 3: peptide 16.7 µg/mL; for % inhibition of "B4-rsCD4" interaction, Conc 2: peptide 167 µg/mL; for % inhibition of "B4-rsCD4" interaction, Conc 1: peptide 1.67 mg/mL
T1 construct: purchased American Bio-Technologies, Inc. Cambridge, MA
Experimental: (§1) ELISA Inhibition Assays. […] The preincubated sample and peptide mixture was used directly in the standard rsCD4 ELISA procedure described herein above. Percent inhibition was calculated relative to the appropriate identically diluted monoclonal antibody which was preincubated in the absence of peptide. rsCD4-induced inhibition of antibody binding in the rsCD4 ELISA was similarly measured by preincubating diluted samples, at an endpoint rsCD4 binding dilution, with the competing rsCD4 at the indicated concentration.
(§2) The signal generated at endpoint concentration (e.g. 10 µg/mL for B4 and 20 µg/mL for M2) in an rsCD4 ELISA was employed as a positive control for the competitive peptide binding studies.
Table 5 depicts per cent inhibition results obtained in the rsCD4 ELISA where designed CD4 peptides were serially diluted and individually incubated with 0.1 mL of B4 at 10 µg/mL prior to the binding of B4 to the solid phase-bound rsCD4. Peptides were employed for competitive inhibition at concentrations of 1.67 mg/mL, 167 µg/mL and 16.7 µg/mL (conc 1, conc 2, and conc 3, respectively). […] Enhancement is expressed by negative values for inhibition.

"M2-rsCD4" interaction = biological target: T2, "M2-rsCD4" interaction (Homo sapiens, UniProt P01730); experiment: ELISA inhibition assay with CD4 peptides (M2); format: binding; conditions: M2 20 µg/mL, negative = enhancement; for % inhibition of "M2-rsCD4" interaction, Conc 3: peptide 16.7 µg/mL; for % inhibition of "M2-rsCD4" interaction, Conc 2: peptide 167 µg/mL; for % inhibition of "M2-rsCD4" interaction, Conc 1: peptide 1.67 mg/mL
T2 construct: purchased American Bio-Technologies, Inc. Cambridge, MA
Experimental: as §1, §2
Table 6 depicts the per cent inhibition results obtained in the rsCD4 ELISA where designed CD4 peptides were serially diluted as in Table 5 and were individually incubated with 0.1 mL of M2 at 20 µg/mL prior to binding M2 to the solid phase-bound rsCD4.

[1] = biological target: CD4 on the surface of CD4-expressing cells (host cell antigen complex comprising CD4) (human); experiment: HPB-ALL cells pre-incubated with PBS, then gp120-FITC 1:200
monoclonal antibody B4 [2] = experiment: competition rsCD4 ELISA, B4 10 µg/mL, peptide 167 µg/mL; negative value = enhancement
monoclonal antibody B4 [3] = experiment: competition rsCD4 ELISA, B4 10 µg/mL, peptide 16.7 µg/mL; negative value = enhancement
monoclonal antibody B4 [4] = experiment: competition rsCD4 ELISA, B4 10 µg/mL, peptide 1.67 mg/mL; negative value = enhancement
monoclonal antibody B4 [5] = experiment: competition rsCD4 ELISA, B4 10 µg/mL, peptide 1.67 mg/mL
monoclonal antibody B4 [6] = experiment: competition rsCD4 ELISA, B4 10 µg/mL, peptide 167 µg/mL
monoclonal antibody B4 [7] = experiment: competition rsCD4 ELISA, B4 10 µg/mL, peptide 16.7 µg/mL
[8] = biological target: gp120 of HIV-1 primary isolate 23135 (clade B); experiment: cell-based or functional assay
[9] = biological target: gp120 of HIV-1 primary isolate BR014 (clade B); experiment: cell-based or functional assay
[10] = biological target: gp120 of HIV-1 primary field isolate DH-12 (clade B); experiment: cell-based or functional assay
monoclonal antibody B4 [11] = experiment: ELISA inhibition: soluble rsCD4 preincubated with B4 0.1 µg/mL; wells coated with rsCD4/CC-CKR5-D3 (p2047a)
monoclonal antibody B4 [12] = experiment: competition ELISA: soluble rsCD4 preincubated with B4 2 µg/mL; solid-phase rsCD4
monoclonal antibody B4 [13] = experiment: soluble rsCD4 5 µg/mL preincubated with biotinylated B4 0.71 µg/mL, then HPB-ALL cells; no inhibition
monoclonal antibody B4 [14] = experiment: soluble rsCD4 0.5 µg/mL preincubated with biotinylated B4 0.71 µg/mL, then HPB-ALL cells; no inhibition
monoclonal antibody B4 [15] = experiment: competition ELISA: soluble rsCD4 5 µg/mL preincubated with B4 2 µg/mL; solid-phase rsCD4
monoclonal antibody B4 [16] = experiment: competition ELISA: soluble rsCD4 1.0 µg/mL preincubated with B4 2 µg/mL; solid-phase rsCD4
monoclonal antibody B4 [17] = experiment: soluble rsCD4 50 µg/mL preincubated with biotinylated B4 0.71 µg/mL, then HPB-ALL cells; no inhibition
monoclonal antibody B4 [18] = experiment: competition ELISA: soluble rsCD4 0.2 µg/mL preincubated with B4 2 µg/mL; solid-phase rsCD4
monoclonal antibody B4 [19] = experiment: soluble rsCD4 0.005 µg/mL preincubated with biotinylated B4 0.71 µg/mL, then HPB-ALL cells; no inhibition
monoclonal antibody B4 [20] = experiment: competition ELISA: soluble rsCD4 0.008 µg/mL preincubated with B4 2 µg/mL; solid-phase rsCD4
monoclonal antibody B4 [21] = experiment: soluble rsCD4 0.05 µg/mL preincubated with biotinylated B4 0.71 µg/mL, then HPB-ALL cells; no inhibition
monoclonal antibody B4 [22] = experiment: competition ELISA: soluble rsCD4 0.04 µg/mL preincubated with B4 2 µg/mL; solid-phase rsCD4
monoclonal antibody B4 [23] = experiment: competition ELISA: soluble rsCD4 25 µg/mL preincubated with B4 2 µg/mL; solid-phase rsCD4
monoclonal antibody B4 [24] = experiment: ELISA inhibition: soluble rsCD4 preincubated with B4 2 µg/mL; wells coated with rsCD4

CD4 (1-20) [1816d]
% inhibition of "B4-rsCD4" interaction, Conc 3 ("B4-rsCD4" interaction): 29% | % inhibition of "B4-rsCD4" interaction, Conc 2 ("B4-rsCD4" interaction): 53% | % inhibition of "B4-rsCD4" interaction, Conc 1 ("B4-rsCD4" interaction): 64% | % inhibition of "M2-rsCD4" interaction, Conc 3 ("M2-rsCD4" interaction): 17% | % inhibition of "M2-rsCD4" interaction, Conc 2 ("M2-rsCD4" interaction): 60% | % inhibition of "M2-rsCD4" interaction, Conc 1 ("M2-rsCD4" interaction): 74%

CD4 (36-47) [1624a]
% inhibition of "B4-rsCD4" interaction, Conc 3 ("B4-rsCD4" interaction): -108% | % inhibition of "B4-rsCD4" interaction, Conc 2 ("B4-rsCD4" interaction): -207% | % inhibition of "B4-rsCD4" interaction, Conc 1 ("B4-rsCD4" interaction): -215% | % inhibition of "M2-rsCD4" interaction, Conc 3 ("M2-rsCD4" interaction): -141% | % inhibition of "M2-rsCD4" interaction, Conc 2 ("M2-rsCD4" interaction): -251% | % inhibition of "M2-rsCD4" interaction, Conc 1 ("M2-rsCD4" interaction): -261%

CD4 (154-165) [1768a]
% inhibition of "B4-rsCD4" interaction, Conc 3 ("B4-rsCD4" interaction): 6% | % inhibition of "B4-rsCD4" interaction, Conc 2 ("B4-rsCD4" interaction): 37% | % inhibition of "B4-rsCD4" interaction, Conc 1 ("B4-rsCD4" interaction): 82% | % inhibition of "M2-rsCD4" interaction, Conc 3 ("M2-rsCD4" interaction): 19% | % inhibition of "M2-rsCD4" interaction, Conc 2 ("M2-rsCD4" interaction): 36% | % inhibition of "M2-rsCD4" interaction, Conc 1 ("M2-rsCD4" interaction): 86%

CD4 (297-351*) [1868a]
% inhibition of "B4-rsCD4" interaction, Conc 3 ("B4-rsCD4" interaction): 19% | % inhibition of "B4-rsCD4" interaction, Conc 2 ("B4-rsCD4" interaction): 30% | % inhibition of "B4-rsCD4" interaction, Conc 1 ("B4-rsCD4" interaction): 38% | % inhibition of "M2-rsCD4" interaction, Conc 3 ("M2-rsCD4" interaction): 17% | % inhibition of "M2-rsCD4" interaction, Conc 2 ("M2-rsCD4" interaction): 43% | % inhibition of "M2-rsCD4" interaction, Conc 1 ("M2-rsCD4" interaction): 56%

HIV-1 gp120 (ligand)
% of cells stained by gp120-FITC [1]: > 90%

p1624a (C)CD4(36-47)(C), cyclic (peptide)
% inhibition of B4-rsCD4 interaction (monoclonal antibody B4 [2]): -207% | % inhibition of B4-rsCD4 interaction (monoclonal antibody B4 [3]): -108% | % inhibition of B4-rsCD4 interaction (monoclonal antibody B4 [4]): -215%

p1768a CD4(154-165) (peptide)
% inhibition of B4-rsCD4 interaction (monoclonal antibody B4 [5]): 82% | % inhibition of B4-rsCD4 interaction (monoclonal antibody B4 [6]): 37% | % inhibition of B4-rsCD4 interaction (monoclonal antibody B4 [7]): 6%

p1768b HBVTh-GG-CD4(154-165) (peptide)
% inhibition of B4-rsCD4 interaction (monoclonal antibody B4 [5]): 76% | % inhibition of B4-rsCD4 interaction (monoclonal antibody B4 [6]): 44% | % inhibition of B4-rsCD4 interaction (monoclonal antibody B4 [7]): 11%

p1813b HBVTh-GG-CD4(79-88) (peptide)
% inhibition of B4-rsCD4 interaction (monoclonal antibody B4 [5]): 93% | % inhibition of B4-rsCD4 interaction (monoclonal antibody B4 [6]): 69% | % inhibition of B4-rsCD4 interaction (monoclonal antibody B4 [7]): 32%

p1816d CD4(1-20) (peptide)
% inhibition of B4-rsCD4 interaction (monoclonal antibody B4 [5]): 64% | % inhibition of B4-rsCD4 interaction (monoclonal antibody B4 [6]): 53% | % inhibition of B4-rsCD4 interaction (monoclonal antibody B4 [7]): 29%

p1868a CD4(297-351), cyclic (peptide)
% inhibition of B4-rsCD4 interaction (monoclonal antibody B4 [5]): 38% | % inhibition of B4-rsCD4 interaction (monoclonal antibody B4 [6]): 30% | % inhibition of B4-rsCD4 interaction (monoclonal antibody B4 [7]): 19%

recombinant human monoclonal antibody IgG1 b12
50% Inhbt., HIV-1 primary isolate 23135, MT-2 Microplaque Neutralization Assay [8]: 12.8 µg/mL | 50% Inhbt., HIV-1 primary isolate BR014, MT-2 Microplaque Neutralization Assay [9]: > 50 µg/mL | HIV-1 DH-12 (chimp PBL-grown), PBMC Infection Reduction Assay [10]: 1.38 logs killed

recombinant soluble CD4 (rsCD4) (receptor)
IC50 (monoclonal antibody B4 [11]): 0.047 µg/mL | IC50 (monoclonal antibody B4 [12]): 1 µg/mL | % Positive cells (biotinylated B4 staining of HPB-ALL) (monoclonal antibody B4 [13]): > 95% | staining (biotinylated B4 on HPB-ALL) (monoclonal antibody B4 [13]): 3 + | % Positive cells (biotinylated B4 staining of HPB-ALL) (monoclonal antibody B4 [14]): > 95% | staining (biotinylated B4 on HPB-ALL) (monoclonal antibody B4 [14]): 3 + | % Inhibition (monoclonal antibody B4 [15]): 91% | A492 nm (monoclonal antibody B4 [15]): 0.061 A492 | % Inhibition (monoclonal antibody B4 [16]): 49.9% | A492 nm (monoclonal antibody B4 [16]): 0.34 A492 | % Positive cells (biotinylated B4 staining of HPB-ALL) (monoclonal antibody B4 [17]): > 95% | staining (biotinylated B4 on HPB-ALL) (monoclonal antibody B4 [17]): 3 + | % Inhibition (monoclonal antibody B4 [18]): 6.7% | A492 nm (monoclonal antibody B4 [18]): 0.633 A492 | % Positive cells (biotinylated B4 staining of HPB-ALL) (monoclonal antibody B4 [19]): > 95% | staining (biotinylated B4 on HPB-ALL) (monoclonal antibody B4 [19]): 3 + | % Inhibition (monoclonal antibody B4 [20]): -4.7% | A492 nm (monoclonal antibody B4 [20]): 0.711 A492 | % Positive cells (biotinylated B4 staining of HPB-ALL) (monoclonal antibody B4 [21]): > 95% | staining (biotinylated B4 on HPB-ALL) (monoclonal antibody B4 [21]): 3 + | % Inhibition (monoclonal antibody B4 [22]): 6.1% | A492 nm (monoclonal antibody B4 [22]): 0.637 A492 | % Inhibition (monoclonal antibody B4 [23]): 91.9% | A492 nm (monoclonal antibody B4 [23]): 0.055 A492 | IC50 (monoclonal antibody B4 [24]): 0.72 µg/mL
